Data: patent US20190367619A1 (ARGENX, published 2019)
Residue numbers refer to the chain shown, from its start. Read-outs that look alike come from different tables or passages of the source. Values belong to the molecule of their own block, whether it stands above or below them.

Assays:
[1] = molecular target: TEV-cleaved wild-type recombinant human galectin-10 (soluble, in Fab complexes, or as recombinant galectin-10 crystals / CLCs) (human) (UniProt Q05315); assay: cell-based or functional assay
[2] = molecular target: T1, cynomolgus galectin-10-His, YRT isoform (cynomolgus); assay: ELISA, coated antigen 0.5 ug/mL
T1 sequence: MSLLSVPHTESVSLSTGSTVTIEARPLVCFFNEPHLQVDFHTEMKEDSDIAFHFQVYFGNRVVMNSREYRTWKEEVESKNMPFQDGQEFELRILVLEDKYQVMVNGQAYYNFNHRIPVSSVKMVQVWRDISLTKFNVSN

[3] = molecular target: T2, recombinant human galectin-10, TEV-cleaved (human, UniProt Q05315 1-142); assay: cell-based or functional assay
T2 sequence: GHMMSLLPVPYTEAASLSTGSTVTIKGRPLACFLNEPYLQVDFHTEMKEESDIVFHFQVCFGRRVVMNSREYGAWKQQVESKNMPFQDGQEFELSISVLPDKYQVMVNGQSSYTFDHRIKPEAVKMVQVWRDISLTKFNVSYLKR

[4] = molecular target: T2, recombinant human galectin-10, …; assay: cell-based or functional assay; remark: listed apart in the source
human galectin-10-His [5] = molecular target: T3, human galectin-10-His (human); assay: ELISA, coated antigen 0.5 ug/mL
T3 construct: The last M of the tag may be Met1 of galectin-10; also called humanGal10-His; hGal10
T3 chain: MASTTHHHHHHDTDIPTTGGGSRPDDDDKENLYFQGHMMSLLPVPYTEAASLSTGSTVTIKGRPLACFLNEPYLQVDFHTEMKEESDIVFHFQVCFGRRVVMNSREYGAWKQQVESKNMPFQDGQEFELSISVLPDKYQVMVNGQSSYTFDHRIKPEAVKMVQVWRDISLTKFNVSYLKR

[6] = molecular target: T4, cynomolgus galectin-10-His, WGS isoform (cynomolgus); assay: ELISA, coated antigen 0.5 ug/mL
T4 construct: also called cynoGal10-WGS; not shown: His tag
T4 chain: T1 sequence with E23K, A24G, F31L, Y69F, R70K, T71I, R92S

human galectin-10-His [7] = molecular target: T3, human galectin-10-His; assay: SPR Biacore T3000, mouse IgG1 captured
[8] = molecular target: T4, cynomolgus galectin-10-His, WGS isoform; assay: SPR Biacore T3000, mouse IgG1 captured
[9] = molecular target: T5, TEV-cleaved wild-type recombinant human galectin-10 (soluble, in Fab complexes, or as recombinant galectin-10 … (human, UniProt Q05315 1-142)); assay: cell-based or functional assay
T5 sequence: T2 sequence

[10] = molecular target: T5, TEV-cleaved wild-type recombinant human …; assay: cell-based or functional assay; remark: listed apart in the source
[11] = molecular target: T5, TEV-cleaved wild-type recombinant human …; assay: cell-based or functional assay; remark: listed apart in the source
[12] = molecular target: T6, human galectin-10-His (recombinant human galectin-10 with TEV-cleavable N-terminal His-tag) (human); assay: ELISA binding (summary table), mouse IgG1
T6 construct: SEC-MALLS: dimer in solution; also called Gal10-His; humanGal10-His
T6 chain: T3 chain

[13] = molecular target: T6, human galectin-10-His (recombinant …); assay: Biacore capture approach (summary table), mouse IgG1
Procedure: (§1) The binding capacity of the mouse IgG1 antibodies to galectin-10 was analyzed on Biacore T3000. For this purpose, a capture approach was set up. A CM5 Chip was coated with polyclonal anti-mouse Fc at 8000 RU, then a fixed concentration of the mouse IgG1 antibody panel (1.5 μg/mL), diluted in HBS-EP pH7.4, was captured to reach a binding signal around 150 RU. Finally, a serial dilution of galectin-10-His (serial dilution, 1 over 2 from 5 μg/mL) diluted in HBS-EP pH7.4 was injected. Raw data were analyzed via BIA evaluation software with a blank subtraction (4-3). The kd/KD and Rmax of each mAb to galectin-10-His was determined using the Fit Kinetics simultaneous ka/kd/Binding with mass transfer/Local Rmax on BIA evaluation software.

[14] = molecular target: T6, human galectin-10-His (recombinant …); assay: ELISA, mouse IgG1 on coated galectin-10-His (0.2 ug/mL)
Procedure: In a similar setup to that used during the characterization of the scFv-human Fc molecules, the relative binding affinities of the 10 mouse IgG1 antibodies were analyzed by ELISA. A Maxisorp plate was coated overnight with 0.2 μg/mL of galectin-10-His. Then a serial dilution of each clone (from 100 nM, dilution 1/4, 12 points of dilutions) was incubated on coated galectin-10. After several washing steps, detection of the bound mouse IgG1 was carried out with an anti-mouse Fc-HRP antibody. Absorbance was measured at 450 nm (reference at 620 nm) with Tecan instrument. A mouse IgG1 isotype control was used as negative control. A polyclonal anti-galectin-10 antibody was used as positive control for the coating of galectin-10. The raw data (OD values) were plotted on GraphPad Prism 7.01. The EC50 values for each antibody, calculated with a non-linear regression (log(agonist) vs. response Variable slope (four parameters)), are reported in Table 7 below.

[15] = molecular target: T6, human galectin-10-His (recombinant …); assay: BLI tandem on galectin-10-His; competitor: saturating 1C09 mIgG1 (10 ug/mL)
Procedure: (§2) In order to identify the galectin-10 binding sites of the different clones, an epitope mapping method (TANDEM), using the BLI technology, was established. Briefly, the galectin-10-His was captured on anti-HIS 1K sensor tips, before incubation with an excess of one antibody (called the “saturating” antibody) then directly transferred to a solution containing the “competitor” antibody at a suboptimal concentration. If the “saturating” and the competitor antibody bind to the same binding sites, no binding of “competitor” will be detected (expressed in nm shift).

[16] = molecular target: T6, human galectin-10-His (recombinant …); assay: BLI tandem on galectin-10-His; competitor: saturating 1D11 mIgG1 (10 ug/mL)
Procedure: as §2

[17] = molecular target: T6, human galectin-10-His (recombinant …); assay: BLI tandem on galectin-10-His; competitor: saturating 2C07 mIgG1 (10 ug/mL)
Procedure: as §2

[18] = molecular target: T6, human galectin-10-His (recombinant …); assay: BLI tandem on galectin-10-His; competitor: saturating 2F09 mIgG1 (10 ug/mL)
Procedure: as §2

[19] = molecular target: T6, human galectin-10-His (recombinant …); assay: BLI tandem on galectin-10-His; competitor: saturating 4E08 mIgG1 (10 ug/mL)
Procedure: as §2

[20] = molecular target: T6, human galectin-10-His (recombinant …); assay: BLI tandem on galectin-10-His; competitor: saturating 6A05 mIgG1 (10 ug/mL)
Procedure: as §2

[21] = molecular target: T6, human galectin-10-His (recombinant …); assay: BLI tandem on galectin-10-His; competitor: saturating 6A08 mIgG1 (10 ug/mL)
Procedure: as §2

[22] = molecular target: T6, human galectin-10-His (recombinant …); assay: BLI tandem on galectin-10-His; competitor: saturating 6B06 mIgG1 (10 ug/mL)
Procedure: as §2

[23] = molecular target: T6, human galectin-10-His (recombinant …); assay: BLI tandem on galectin-10-His; competitor: saturating 6E10 mIgG1 (10 ug/mL)
Procedure: as §2

[24] = molecular target: T6, human galectin-10-His (recombinant …); assay: BLI tandem on galectin-10-His; competitor: saturating 6F06 mIgG1 (10 ug/mL)
Procedure: as §2

[25] = molecular target: T6, human galectin-10-His (recombinant …); assay: BLI tandem on galectin-10-His; isotype control as saturating antibody (10 ug/mL)
Procedure: as §2

[26] = molecular target: T6, human galectin-10-His (recombinant …); assay: SPR Biacore T3000, mouse IgG1 captured by anti-mouse Fc, galectin-10-His as analyte
Procedure: as §1

CLC formation (crystallization robot assay) [1]: 100%
Molecule: mouse IgG1 isotype control (irrelevant mouse IgG1) (antibody)

OD values [2]: 0.01 OD | 50% dissolution (min) of CLCs, antibody 50 uM [3]: 13.2 min | 90% dissolution (min) of CLCs, antibody 50 uM [3]: 44.4 min | 50% crystal dissolution (min), 50 uM [4]: 31.8 min | 90% crystal dissolution (min), 50 uM [4]: 93 min | EC50 (human galectin-10-His [5]): 0.57 nM | OD values (human galectin-10-His [5]): 0.4 OD | EC50 [6]: 0.06 nM | OD values [6]: 3.22 OD | Kd (human galectin-10-His [7]): 1.4 nM | koff (human galectin-10-His [7]): 0.0039 s⁻¹ | kon (human galectin-10-His [7]): 2.78e+06 M⁻¹ s⁻¹ | Kd [8]: 1.5 nM | koff [8]: 0.066 s⁻¹ | kon [8]: 4.54e+07 M⁻¹ s⁻¹
B2: 7B07 mouse IgG1 (antibody, V domains shown)
VH: QVQLVESGGGLVQPGGSLRLSCAASGFTFRSYDMSWVRQAPGKGPEWVSAIKNGGGITYYADSVKGRFTISRDNAKNTLYLQMNSLKPEDTAVYYCATTHGIGTLGFGSWGQGTQVTVSS
VL: SYELTQSASVSVALTQTAKITCDGNNIGSKSAQWYQQKPGQAPALVIYADEYRPEGIPERFSGSNSGNTATLIISGAQAEDEADYYCQVWDGSAAVFGRGTHLTVL
notes: VH and VL cloned in frame with mouse IgG1 constant domains; also called 7B07 mIgG1

The remaining lines, values behind:

B1: 1D11 mouse IgG1 (antibody, V domains shown)
VH: QVQLVESGGGLVQPGGSLRLSCAASGFTFDDYAMSWVRQAPGKGLEWVSGISWNGGSTYYAESMKGRFTISRDNAKNTLYLQMNSLKSEDTAVYYCAKDRNLGYRLGYPYDYWGQGTQVTVSS
VL: QSVLTQPPSVSGSPGETVTISCAGTSSDVGYGNYVSWYQQLPGMAPRLLIYEVNKRASGITDRFSGSKSGNTASLTISGLQSEDEGDYYCASYRSSNNAVFGGGTHLTVL
OD values [2]: 0.03 OD

B3: 1C09 mouse IgG1 (antibody, V domains shown)
VH: QVQLVESGPGLVKPSQTLSLTCTVSGGSITTNSYYWSWIRQPPGKGLEWMGAIAYSGSTYYSPSLKSRTSISRDTSKNQFTLHLSSVTPEDTAVYYCARRPNWYRALDAWGQGTLVTVSS
VL: NFMLTQPSAVSVSLGQTARITCQGANLGRYYGIWYQQKPGQAPVQVIYGDSNRPSGIPERFSGSSSGGTATLTISGAQAEDEADYYCQSYESSTSPVFGGGTHLTVL
notes: VH on mouse IgG1 heavy chain constant domains (CH1-CH2-CH3), VL on mouse lambda light chain constant domain; also called 1C09 mIgG1
dissolution of in vitro grown Gal10 crystals (spinning disk confocal microscopy) [9]: ≤ 90 min | 100% Solubilization of CLC (Conc uM) [10]: 10.5 µM | 100% Inhibition of CLC formation (Conc uM) [11]: 0.82 µM | 100% Solubilization of CLC (Conc uM) [11]: 10.5 µM | EC50 [12]: 0.13 nM | Kd [13]: 0.5 nM | koff [13]: 0.00529 s⁻¹ | Bmax [14]: 2.3 OD | EC50 [14]: 0.13 nM | binding signal (nm) [15]: 0.03 nm | binding signal (nm) [16]: 0.1 nm | binding signal (nm) [17]: 0.03 nm | binding signal (nm) [18]: 0.02 nm | binding signal (nm) [19]: 0.08 nm | binding signal (nm) [20]: 0.09 nm | binding signal (nm) [21]: 0.04 nm | binding signal (nm) [22]: 0.02 nm | binding signal (nm) [23]: 0.02 nm | binding signal (nm) [24]: 0.04 nm | binding signal (nm) [25]: 1.21 nm | Kd [26]: 0.5 nM | koff [26]: 0.00529 s⁻¹

B4: 4E08 mouse IgG1 (antibody, V domains shown)
VH: QVQRQESGPGLVKPSQTLSLTCTVSGGSITTSYYAWSWIRQPPGKGLEWMGVIASDGSTYYSPSLKSRTSISRDTSKNQFSLQLSSVTPEDTAVYYCALYIRGSSWSGWSAYDYWGQGTQVTVSS
VL: QPVLNQPSAVSVSLGQTARITCQGGNFGYYYGSWYQQKPGQAPVLVIYKDSERPSGIPERFSGSSSGGTATLTISRAQAEDEADYYCQSADSSDNPVFGGGTHLTVL
notes: VH on mouse IgG1 heavy chain constant domains (CH1-CH2-CH3), VL on mouse lambda light chain constant domain; also called 4E8; 4E08 mIgG1
dissolution of in vitro grown Gal10 crystals (spinning disk confocal microscopy) [9]: ≤ 90 min | 100% Solubilization of CLC (Conc uM) [10]: > 10 µM | 100% Inhibition of CLC formation (Conc uM) [11]: 1.11 µM | 100% Solubilization of CLC (Conc uM) [11]: > 10 µM | EC50 [12]: 3.22 nM | Kd [13]: 0.8 nM | koff [13]: 0.00085 s⁻¹ | Bmax [14]: 2.06 OD | EC50 [14]: 3.22 nM | binding signal (nm) [15]: -0.02 nm | binding signal (nm) [16]: 0.03 nm | binding signal (nm) [17]: 0 nm | binding signal (nm) [18]: 0.01 nm | binding signal (nm) [19]: -0.08 nm | binding signal (nm) [20]: 0.03 nm | binding signal (nm) [21]: -0.03 nm | binding signal (nm) [22]: 0 nm | binding signal (nm) [23]: -0.05 nm | binding signal (nm) [24]: 0.01 nm | binding signal (nm) [25]: 0.97 nm | Kd [26]: 0.8 nM | koff [26]: 0.00085 s⁻¹
